Measured values as given in patent US20050221433A1.

Molecular target: recombinant human IL-18 (human) (UniProt Q14116)
Test: cell-based or functional assay

Chain of recombinant human IL-18 (human) (Q14116 37-193 limits assumed): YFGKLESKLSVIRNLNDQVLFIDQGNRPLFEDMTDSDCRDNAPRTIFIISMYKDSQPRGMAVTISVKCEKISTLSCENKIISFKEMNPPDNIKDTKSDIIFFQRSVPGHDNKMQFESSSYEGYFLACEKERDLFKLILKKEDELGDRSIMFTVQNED
Chain of hIL18BPa (1-192).His (O95998 31-194): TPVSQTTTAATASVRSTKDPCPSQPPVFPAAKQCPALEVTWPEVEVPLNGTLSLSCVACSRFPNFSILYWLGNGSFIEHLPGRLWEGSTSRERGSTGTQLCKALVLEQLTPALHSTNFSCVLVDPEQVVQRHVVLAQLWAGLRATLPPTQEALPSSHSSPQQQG
Chain of hIL18BPa (1-168).TG.hFc (O95998 other isoform, or with tags, fused parts or gaps): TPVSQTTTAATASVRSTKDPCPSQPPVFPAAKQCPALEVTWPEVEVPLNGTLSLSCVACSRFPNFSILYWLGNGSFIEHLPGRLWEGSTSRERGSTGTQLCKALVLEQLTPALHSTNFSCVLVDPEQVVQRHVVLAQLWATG
Chain of hIL18BPa (64-192).TG.hFc (O95998 other isoform, or with tags, fused parts or gaps): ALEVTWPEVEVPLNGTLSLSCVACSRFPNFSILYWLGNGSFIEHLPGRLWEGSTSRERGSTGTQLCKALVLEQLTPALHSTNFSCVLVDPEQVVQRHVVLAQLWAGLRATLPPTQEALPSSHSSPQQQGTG
Chain of hIL18BPa (58-192).TG.his (O95998 other isoform, or with tags, fused parts or gaps): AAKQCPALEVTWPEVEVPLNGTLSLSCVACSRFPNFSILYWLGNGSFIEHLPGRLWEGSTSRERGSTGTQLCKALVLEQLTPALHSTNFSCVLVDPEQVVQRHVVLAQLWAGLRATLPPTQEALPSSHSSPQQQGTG

| Substance | IC50 (M), HEK293/NFkB-luciferase bioassay [M] |
| --- | --- |
| hIL18BPa(58-192)(C62S, C129S, C148S).TG.hFc (from UniProt O95998 60-194) (Fc fusion) | 6.7e-09 |
| hIL18BPa (1-192) (C129S).hFc (from UniProt O95998 31-194) (Fc fusion) | 2.05e-10 |
| hIL18BPa (58-192)(C62S, C129S).TG.hFc (from UniProt O95998 60-194) (Fc fusion) | 9e-09 |
| hIL18BPa (64-192).TG.hFc (from UniProt O95998 66-194) (Fc fusion) | 7e-09 |
| hIL18Rβ.hIL18BPa (1-192) (C49S, C129S).hFc (Fc fusion) | 1.38e-09 |
| hIL18Rβ.SG.hIL18BPa (58-192).TG.hFc (Fc fusion) | 2.3e-09 |
| hIL18BPa (58-192) (C129K).TG.hFc (from UniProt O95998 60-194) (Fc fusion) | 7.42e-11 |
| hIL18BPa (58-192)(C84S).TG.hFc (from UniProt O95998 60-194) (Fc fusion) | 7.38e-09 |
| hIL18BPa (1-192) (C49S, C129S).hIL18Rβ.hFc (Fc fusion) | 2.06e-10 |
| hIL18BPa (1-192).His (from UniProt O95998 31-194) (receptor) | 2.1e-10 |
| hIL18BPa (58-192) (C129E).TG.hFc (from UniProt O95998 60-194) (Fc fusion) | 5.15e-10 |
| hIL18BPa (58-192) (C62S, C87S, C129S).TG.hFc (from UniProt O95998 60-194) (Fc fusion) | 7.56e-09 |
| hIL18BPa (58-192) (C129S).biot.His (from UniProt O95998 60-194) (receptor) | 4e-11 |
| hIL18BPa (58-192).TG.his (from UniProt O95998 60-194) (receptor) | 4.1e-10 |
| hFc.TG.hIL18BPa (58-192) (C129S). (from UniProt O95998 60-194) (Fc fusion) | 1.51e-10 |
| hIL18BPa (1-192) (C84S).TG.hFc (from UniProt O95998 31-194) (Fc fusion) | 2.6e-05 |
| hIL18BPa (58-192) (C129H).TG..hFc (from UniProt O95998 60-194) (Fc fusion) | 8.44e-11 |
| hIL18BPa (58-192) (C129S, C148S).TG.hFc (from UniProt O95998 60-194) (Fc fusion) | 7.3e-09 |
| hIL18BPa (58-192) (C129D).TG.hFc (from UniProt O95998 60-194) (Fc fusion) | 2.98e-09 |
| hIL18BPa (58-192)(C87S, C129S).TG.hFc (from UniProt O95998 60-194) (Fc fusion) | 7.5e-09 |
| hIL18BPa (1-168).TG.hFc (from UniProt O95998 31-170) (Fc fusion) | 1.75e-09 |
| hIL18BPa (58-192)(C87S, C129S, C148S).TG.hFc (from UniProt O95998 60-194) (Fc fusion) | 9.7e-09 |
